Results from the Human Domainome abundance scans (Beltran et al. 2025).
± gives the uncertainty stated by the source.

B1: Far upstream element-binding protein 1, residues 184 to 257; numbered along this chain, Q96AE4 (parent)
chain: GNAVQEIMIPASKAGLVIGKGGETIKQLQERAGVKMVMIQDGPQNTGADKPLRITGDPYKVQQAKEMVLELIRD

Variants of: B1
Assay: abundance fitness (aPCA) (normalised: wild type 0, dead -1); higher = more abundant; growth selection in yeast, the domain comes from the species named
Conditions: Homo sapiens

Variant | abundance fitness
GNAVQEIMIPASKAGLVIGKGMETIKQLQERAGVKMVMIQDGPQNTGADKPLRITGDPYKVQQAKEMVLELIRD | -0.115 ± 0.042
GNAVQEIMIPASKAGLVIGKGGETIKQLQERAGVKMVMIPDGPQNTGADKPLRITGDPYKVQQAKEMVLELIRD | -0.052 ± 0.035
GNAVQEIMIPASKAGLVIGKGGETIKQLQERAGVKMVMILDGPQNTGADKPLRITGDPYKVQQAKEMVLELIRD | -0.076 ± 0.031
GNAVQEIMIPASKAGLVIGKGGETIKQLQERAGVKMVMIEDGPQNTGADKPLRITGDPYKVQQAKEMVLELIRD | -0.067 ± 0.037
GNAVQEIMIPASKAGLVIGKGGETIKQLQERAGVKMVMIQDGPQNTGADKPDRITGDPYKVQQAKEMVLELIRD | -0.702 ± 0.07
GNAVQEIMIPASKAGLVIGKGGETIKQLQERAGVKMVMIQDGPQNTGADKPKRITGDPYKVQQAKEMVLELIRD | -0.841 ± 0.057
GNAVQEIMIPASKAGLVIGKGGETIKQLQERAGVKMVMIQDGYQNTGADKPLRITGDPYKVQQAKEMVLELIRD | -0.003 ± 0.054
GNAVQEIMIPASKAGLVIGKGGETIKQLQERPGVKMVMIQDGPQNTGADKPLRITGDPYKVQQAKEMVLELIRD | -0.706 ± 0.046
GNAVQEIMIPASKAGLVIGKGGETIKQLQERNGVKMVMIQDGPQNTGADKPLRITGDPYKVQQAKEMVLELIRD | 0.029 ± 0.051
GNAVQEIMIPASKAGLVIGKGGETIKQLQERKGVKMVMIQDGPQNTGADKPLRITGDPYKVQQAKEMVLELIRD | -0.171 ± 0.046
GNAVQEIMIPASKAGLVIGKGGETIKQLQERAGVKMVMIQDGPQNTGADKPLRITGDPYKVQQDKEMVLELIRD | -0.725 ± 0.059
GNAVQEIMSPASKAGLVIGKGGETIKQLQERAGVKMVMIQDGPQNTGADKPLRITGDPYKVQQAKEMVLELIRD | -0.913 ± 0.045
GNAVQEIMIPASKAGLVIGKGGETIKQLQERAGVKMVMIQDGPFNTGADKPLRITGDPYKVQQAKEMVLELIRD | -0.082 ± 0.053
GNAVQEIMIPASKAGLVIGKGGETIKQLQERAGVKMVMIQDGPVNTGADKPLRITGDPYKVQQAKEMVLELIRD | -0.067 ± 0.03
GNAVQEIMIPASKAGLVIGKGGETIKQLQERAGVKMVMIQDGPNNTGADKPLRITGDPYKVQQAKEMVLELIRD | 0.02 ± 0.048
GNAVQEIMIPASKAGLVIGKGGETIKQLQERAGVKMVMIQDGPQNTGADKPLSITGDPYKVQQAKEMVLELIRD | -0.148 ± 0.033
GNAVQEIMIPASKAGLVIGKGGETIGQLQERAGVKMVMIQDGPQNTGADKPLRITGDPYKVQQAKEMVLELIRD | -0.098 ± 0.027
GNAVQEIMIPASKAGLVIGKGGETIKQLQELAGVKMVMIQDGPQNTGADKPLRITGDPYKVQQAKEMVLELIRD | -0.125 ± 0.031
GNAVQEIMIPASKAGLVIGKGGETIKQLQEEAGVKMVMIQDGPQNTGADKPLRITGDPYKVQQAKEMVLELIRD | 0 ± 0.033

Variant | abundance fitness
GNAVQEIMIPASKAGLVIGKGGETIKTLQERAGVKMVMIQDGPQNTGADKPLRITGDPYKVQQAKEMVLELIRD | -0.081 ± 0.036
GNAVQEIMIPASKAGLVIGKGGETIKHLQERAGVKMVMIQDGPQNTGADKPLRITGDPYKVQQAKEMVLELIRD | -0.008 ± 0.044
GNAVQEIMIPASKAGLVIGKGGETIKQLQERAGVKMVMIQDGPQNTGADKPLRITCDPYKVQQAKEMVLELIRD | -1.08 ± 0.12
GNAVQEIMIPASKAGLVIGKGGETIKQLQERAGVKMVMIQDGPQNTGADKPLRITGDPYKVQQAKEMVLELISD | 0.044 ± 0.031
GRAVQEIMIPASKAGLVIGKGGETIKQLQERAGVKMVMIQDGPQNTGADKPLRITGDPYKVQQAKEMVLELIRD | 0.032 ± 0.028
GNAVQEIMIPASKAGLVIGKGGETIKQLQERAGVKMVMIQDGPQNTGADKPLRITGDPYKVQQAKEMVLEAIRD | -0.1 ± 0.032
GNAVQEIMIPASKAGLVIGKGGETIKQLQERAGVKMVMIQDGPQNTGADKPLRITGDPYKVQQAKEMVLEPIRD | -0.481 ± 0.042
GNAVQEIMIPASKAGLVIGKGGETIKQLQERAGVKMVMIQDGPQNTGADGPLRITGDPYKVQQAKEMVLELIRD | -0.201 ± 0.027
GNAVQEIMIPASKAGLVIGKGGETIKQLQERAGVKMVMIQDGPQNTGADNPLRITGDPYKVQQAKEMVLELIRD | -0.071 ± 0.049
GNAVQEIMIPASKAGLVIGKGGETIKQLQERAGVKMVMIQDGPQNTGADCPLRITGDPYKVQQAKEMVLELIRD | -0.057 ± 0.04
GNAVQEIMIPASKAGLVIGKGGETIKQLQERAGVKMVMIQDGPQNTGADPPLRITGDPYKVQQAKEMVLELIRD | -0.202 ± 0.038
GNAVQEIMIPASKAGLVIGKGGETIKQLQERAGVKMVMIQDGPQNTGADEPLRITGDPYKVQQAKEMVLELIRD | -0.202 ± 0.035
GNAVQEIMIPASKAGLVIGKGGETIKQLQERAGVKMVMIQDGPQNTGADKPLRITGDPYKVQQAKEMVLELIRE | -0.058 ± 0.052
GNAVQEIMIPASKAGLVIGKGGETIKQLQERAGVKMVDIQDGPQNTGADKPLRITGDPYKVQQAKEMVLELIRD | -0.392 ± 0.055
GNAVQEIMIPASKAGLVIGKGGETIKQLQERAGVKMVGIQDGPQNTGADKPLRITGDPYKVQQAKEMVLELIRD | -0.324 ± 0.028
GNAVQEIMIPASKAGLVIGKGGETIKQLQERAGVKMVMIQDGPQNTIADKPLRITGDPYKVQQAKEMVLELIRD | -0.168 ± 0.057
GNAVQEIMIPASKAGLVIGKGGETIKQLQERAGVKMVMIQDGPQNTGADKPLRITGDPYKVQQAKEMVSELIRD | -0.015 ± 0.03
GNAVQEIMIPAHKAGLVIGKGGETIKQLQERAGVKMVMIQDGPQNTGADKPLRITGDPYKVQQAKEMVLELIRD | -0.018 ± 0.054
